Reference: the supplement of paper PMC9112550, “Optimization of the antimicrobial peptide Bac7 by deep mutational scanning” (BMC Biology, 2022)

Tested on: Escherichia coli TOP10
Assay: shrunken log2 fold change of peptide-encoding DNA abundance (4.5 h post-induction vs induction); higher = less antimicrobial activity (less host growth inhibition)
Settings: time post-induction: 4.5 h; library: site-saturation at positions 5, 18, 19, 20
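Note: peptides expressed intracellularly from a pBAD plasmid library in pooled LB shake-flask culture, induced with 0.3% L-arabinose, DNA abundance read by NGS, three biological replicates, DESeq2 with apeglm shrinkage.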

Sequence | shrunken log2 fold change
RRIRLRPPRLPRPRPRPSIDPRP | -0.191
RRIRTRPPRLPRPRPRPESQPRP | -0.0324
RRIRERPPRLPRPRPRPIPKPRP | 0.65
RRIRARPPRLPRPRPRPDSNPRP | 0.179
RRIRSRPPRLPRPRPRPIMYPRP | -0.42
RRIRPRPPRLPRPRPRPLKNPRP | 0.186
RRIRYRPPRLPRPRPRPTWNPRP | -0.424
RRIRKRPPRLPRPRPRPESRPRP | 0.625
RRIRSRPPRLPRPRPRPWAEPRP | 0.0168
RRIRKRPPRLPRPRPRPHMTPRP | 0.0202
RRIRQRPPRLPRPRPRPWFVPRP | -0.423
RRIRIRPPRLPRPRPRPAWRPRP | 0.263
RRIRLRPPRLPRPRPRPACFPRP | 0.259
RRIRERPPRLPRPRPRPWDNPRP | -0.021
RRIRRRPPRLPRPRPRPHHMPRP | -0.217
RRIRHRPPRLPRPRPRPKRAPRP | 0.0906
RRIRARPPRLPRPRPRPANIPRP | -0.19
RRIRMRPPRLPRPRPRPFFIPRP | -0.247
RRIRDRPPRLPRPRPRPYMRPRP | -0.0888
RRIRCRPPRLPRPRPRPFVFPRP | -0.26
RRIRYRPPRLPRPRPRPHTLPRP | -0.959
RRIRFRPPRLPRPRPRPKDPPRP | 0.216
RRIRCRPPRLPRPRPRPGMFPRP | -0.462
RRIRLRPPRLPRPRPRPMLGPRP | 0.0421
RRIRHRPPRLPRPRPRPPCSPRP | -0.217

Sequence | shrunken log2 fold change
RRIRDRPPRLPRPRPRPMMCPRP | -0.131
RRIRNRPPRLPRPRPRPQAYPRP | -0.3
RRIRYRPPRLPRPRPRPIYGPRP | -0.428
RRIRERPPRLPRPRPRPQCNPRP | 0.117
RRIRNRPPRLPRPRPRPRAQPRP | 0.188
RRIRDRPPRLPRPRPRPANAPRP | -0.00277
RRIRIRPPRLPRPRPRPWPSPRP | 0.193
RRIRLRPPRLPRPRPRPCTYPRP | -0.683
RRIRIRPPRLPRPRPRPCWHPRP | -0.428
RRIRWRPPRLPRPRPRPRNCPRP | -0.00862
RRIRDRPPRLPRPRPRPKEGPRP | 0.32
RRIRKRPPRLPRPRPRPNFNPRP | -0.0705
RRIRNRPPRLPRPRPRPVFNPRP | -0.242
RRIRIRPPRLPRPRPRPEAWPRP | 0.033
RRIRCRPPRLPRPRPRPQETPRP | 0.00739
RRIRGRPPRLPRPRPRPDTDPRP | 1.01
RRIRTRPPRLPRPRPRPMYTPRP | -0.156
RRIRQRPPRLPRPRPRPNRCPRP | -0.0278
RRIRVRPPRLPRPRPRPCDLPRP | -0.238
RRIRGRPPRLPRPRPRPSYVPRP | 0.112
RRIRVRPPRLPRPRPRPPRCPRP | 0.324
RRIRVRPPRLPRPRPRPQTDPRP | -0.27
RRIRFRPPRLPRPRPRPHYTPRP | -0.385
RRIRRRPPRLPRPRPRPFSPPRP | -0.173
RRIRHRPPRLPRPRPRPPLYPRP | -0.151

Sequence | shrunken log2 fold change
RRIRQRPPRLPRPRPRPATAPRP | 0.115
RRIRTRPPRLPRPRPRPFFLPRP | -0.299
RRIRMRPPRLPRPRPRPTVLPRP | 0.477
RRIRMRPPRLPRPRPRPLGFPRP | 0.772
RRIRWRPPRLPRPRPRPMDMPRP | -0.0589
RRIRDRPPRLPRPRPRPTGLPRP | -0.000418
RRIRKRPPRLPRPRPRPTDTPRP | 0.261
RRIRARPPRLPRPRPRPTYAPRP | 0.2
RRIRQRPPRLPRPRPRPCSCPRP | 0.0297
RRIRVRPPRLPRPRPRPFCEPRP | -0.197
RRIRMRPPRLPRPRPRPKMYPRP | 0.0587
RRIRYRPPRLPRPRPRPKRTPRP | -0.0162
RRIRLRPPRLPRPRPRPHLNPRP | 0.141
RRIRPRPPRLPRPRPRPWMPPRP | -0.00504
RRIRMRPPRLPRPRPRPRRQPRP | 1.13
RRIRLRPPRLPRPRPRPLQTPRP | 0.101
RRIRIRPPRLPRPRPRPITHPRP | -0.329
RRIRGRPPRLPRPRPRPYKQPRP | 0.025
RRIRGRPPRLPRPRPRPESDPRP | 2.08
RRIRHRPPRLPRPRPRPDHGPRP | -0.115
RRIRDRPPRLPRPRPRPQNLPRP | 0.0232
RRIRQRPPRLPRPRPRPADVPRP | 0.0705
RRIRKRPPRLPRPRPRPCFFPRP | 0.113
RRIRGRPPRLPRPRPRPCCHPRP | 0.345
RRIRDRPPRLPRPRPRPTNVPRP | -0.138

Sequence | shrunken log2 fold change
RRIRWRPPRLPRPRPRPNDHPRP | -0.0566
RRIRLRPPRLPRPRPRPPELPRP | 0.389
RRIRVRPPRLPRPRPRPNKYPRP | -0.668
RRIRPRPPRLPRPRPRPQANPRP | -0.137
RRIRPRPPRLPRPRPRPRETPRP | 0.574
RRIRARPPRLPRPRPRPRKTPRP | 0.29
RRIRARPPRLPRPRPRPYWVPRP | -0.57
RRIRIRPPRLPRPRPRPFLQPRP | -0.248
RRIRARPPRLPRPRPRPEAKPRP | 0.73
RRIRVRPPRLPRPRPRPPDCPRP | -0.0843
RRIRRRPPRLPRPRPRPHSYPRP | -0.187
RRIRYRPPRLPRPRPRPWMNPRP | -0.00197
RRIRCRPPRLPRPRPRPQAVPRP | -0.154
RRIRSRPPRLPRPRPRPLPTPRP | 0.446
RRIRGRPPRLPRPRPRPIAVPRP | 0.892
RRIRNRPPRLPRPRPRPPNFPRP | -0.0236
RRIRRRPPRLPRPRPRPIFGPRP | 0.338
RRIRDRPPRLPRPRPRPDIWPRP | 0.504
RRIRVRPPRLPRPRPRPGKLPRP | 0.126
RRIRQRPPRLPRPRPRPNYGPRP | -0.299
RRIRCRPPRLPRPRPRPTISPRP | -0.381
RRIRFRPPRLPRPRPRPSDMPRP | -0.11
RRIRGRPPRLPRPRPRPEHAPRP | 2.78
RRIRWRPPRLPRPRPRPFQNPRP | -0.235
RRIRIRPPRLPRPRPRPYLSPRP | -0.0357

Sequence | shrunken log2 fold change
RRIRYRPPRLPRPRPRPYWDPRP | -0.483
RRIRERPPRLPRPRPRPRIDPRP | -0.0634
RRIRSRPPRLPRPRPRPVSQPRP | -0.0165
RRIRGRPPRLPRPRPRPWQFPRP | 0.0819
RRIRNRPPRLPRPRPRPDGFPRP | -0.104
RRIRIRPPRLPRPRPRPQPYPRP | -0.84
RRIRGRPPRLPRPRPRPSLKPRP | 0.441
RRIRHRPPRLPRPRPRPSSWPRP | -0.0281
RRIRSRPPRLPRPRPRPFKTPRP | -0.0323
RRIRPRPPRLPRPRPRPLWGPRP | 0.232
RRIRDRPPRLPRPRPRPGRKPRP | 0.0333
RRIRPRPPRLPRPRPRPSAEPRP | 0.257
RRIRSRPPRLPRPRPRPVLGPRP | 0.447
RRIRLRPPRLPRPRPRPDQHPRP | -0.0962
RRIRTRPPRLPRPRPRPKRRPRP | 0.513
RRIRIRPPRLPRPRPRPQFDPRP | -0.505
RRIRSRPPRLPRPRPRPYIHPRP | -0.737
RRIRYRPPRLPRPRPRPPYKPRP | -0.23
RRIRCRPPRLPRPRPRPDQAPRP | 0.288
RRIRTRPPRLPRPRPRPSMQPRP | -0.244
RRIRERPPRLPRPRPRPYSAPRP | -0.269
RRIRMRPPRLPRPRPRPIEKPRP | -0.00199
RRIRCRPPRLPRPRPRPDGTPRP | 0.105
RRIRNRPPRLPRPRPRPLIVPRP | -0.332
RRIRHRPPRLPRPRPRPRHDPRP | -0.0713
